Results on three proteins are retold here after article PMC3792407, “Overexpression of chloroplast NADPH-dependent thioredoxin reductase in Arabidopsis enhances leaf growth and elucidates in vivo function of reductase and thioredoxin domains” (Frontiers in Plant Science, 2013).

The data set concerns the molecule itself. In words: SDS-PAGE of unheated samples with Western blot; soluble leaf proteins extracted in 50 mM HEPES, 5 mM NaCl, 10 mM MgCl2 with or without 2 mM DTT; solubilised in SDS buffer with or without mercaptoethanol and kept on ice (0°C), not heated; 10% acrylamide gel; blot with anti-NTRC or anti-NTRB antibody.

B1: NADPH-dependent thioredoxin reductase C (NTRC), endogenous in wild-type Arabidopsis leaves (enzyme, UniProt O22229 68-529, looked up)
chain: ATANSPSSSSSGGEIIENVVIIGSGPAGYTAAIYAARANLKPVVFEGYQMGGVPGGQLMTTTEVENFPGFPDGITGPDLMEKMRKQAERWGAELYPEDVESLSVTTAPFTVQTSERKVKCHSIIYATGATARRLRLPREEEFWSRGISACAICDGASPLFKGQVLAVVGGGDTATEEALYLTKYARHVHLLVRRDQLRASKAMQDRVINNPNITVHYNTETVDVLSNTKGQMSGILLRRLDTGEETELEAKGLFYGIGHSPNSQLLEGQVELDSSGYVLVREGTSNTSVEGVFAAGDVQDHEWRQAVTAAGSGCIAALSAERYLTSNNLLVEFHQPQTEEAKKEFTQRDVQEKFDITLTKHKGQYALRKLYHESPRVILVLYTSPTCGPCRTLKPILNKVVDEYNHDVHFVEIDIEEDQEIAEAAGIMGTPCVQFFKNKEMLRTISGVKMKKEYREFIEANK
notes: NTRC of Arabidopsis thaliana (At2g41680), mature chloroplast protein without the putative transit peptide of 67 amino acids (ChloroP); calculated mass of mature NTRC 50890 Da, band of about 50 kDa; printed residue numbers count on the precursor with the transit peptide; The cleavage site of the transit peptide is only a ChloroP prediction (67 amino acids); also called plastid-localized …
For B1, the “stoichiometry N” value is 2.

B2: full-length NTRC with C454S/C457S in the TRXd active site (OE-SGPS) (enzyme, Arabidopsis thaliana, UniProt O22229 68-529, looked up)
chain: ATANSPSSSSSGGEIIENVVIIGSGPAGYTAAIYAARANLKPVVFEGYQMGGVPGGQLMTTTEVENFPGFPDGITGPDLMEKMRKQAERWGAELYPEDVESLSVTTAPFTVQTSERKVKCHSIIYATGATARRLRLPREEEFWSRGISACAICDGASPLFKGQVLAVVGGGDTATEEALYLTKYARHVHLLVRRDQLRASKAMQDRVINNPNITVHYNTETVDVLSNTKGQMSGILLRRLDTGEETELEAKGLFYGIGHSPNSQLLEGQVELDSSGYVLVREGTSNTSVEGVFAAGDVQDHEWRQAVTAAGSGCIAALSAERYLTSNNLLVEFHQPQTEEAKKEFTQRDVQEKFDITLTKHKGQYALRKLYHESPRVILVLYTSPTSGPSRTLKPILNKVVDEYNHDVHFVEIDIEEDQEIAEAAGIMGTPCVQFFKNKEMLRTISGVKMKKEYREFIEANK
notes: signal peptide in the construct (chloroplast transit peptide, putative 67 amino acids, ChloroP); full-length NTRC of Arabidopsis thaliana (At2g41680) with both redox cysteines of the TRXd motif CGPC changed to serine; in the leaf extract it runs as the mature protein of about 50 kDa; also called NTRC-SGPS; source: transgenic Arabidopsis (ntrc knockout background, CaMV 35S promoter, pGWR8), …
As for B2, the “stoichiometry N” value came to 2.

B3: full-length NTRC with C217S/C220S in the NTRd active site (OE-SAIS) (enzyme, Arabidopsis thaliana, UniProt O22229 68-529, looked up)
chain: ATANSPSSSSSGGEIIENVVIIGSGPAGYTAAIYAARANLKPVVFEGYQMGGVPGGQLMTTTEVENFPGFPDGITGPDLMEKMRKQAERWGAELYPEDVESLSVTTAPFTVQTSERKVKCHSIIYATGATARRLRLPREEEFWSRGISASAISDGASPLFKGQVLAVVGGGDTATEEALYLTKYARHVHLLVRRDQLRASKAMQDRVINNPNITVHYNTETVDVLSNTKGQMSGILLRRLDTGEETELEAKGLFYGIGHSPNSQLLEGQVELDSSGYVLVREGTSNTSVEGVFAAGDVQDHEWRQAVTAAGSGCIAALSAERYLTSNNLLVEFHQPQTEEAKKEFTQRDVQEKFDITLTKHKGQYALRKLYHESPRVILVLYTSPTCGPCRTLKPILNKVVDEYNHDVHFVEIDIEEDQEIAEAAGIMGTPCVQFFKNKEMLRTISGVKMKKEYREFIEANK
notes: signal peptide in the construct (chloroplast transit peptide, putative 67 amino acids, ChloroP); full-length NTRC of Arabidopsis thaliana (At2g41680) with both redox cysteines of the NTRd motif CAIC changed to serine; in the leaf extract it runs as the mature protein of about 50 kDa; source: transgenic Arabidopsis (ntrc knockout background, CaMV 35S promoter, pGWR8), soluble leaf extract
For B3, the “stoichiometry N” value came to 2.

For orientation: stoichiometry N means the number of molecules, sites or subunits per partner or assembly.
